Molecular target: T1, Tsa1 (S. cerevisiae 2-Cys peroxyredoxin), P34760
T1 chain: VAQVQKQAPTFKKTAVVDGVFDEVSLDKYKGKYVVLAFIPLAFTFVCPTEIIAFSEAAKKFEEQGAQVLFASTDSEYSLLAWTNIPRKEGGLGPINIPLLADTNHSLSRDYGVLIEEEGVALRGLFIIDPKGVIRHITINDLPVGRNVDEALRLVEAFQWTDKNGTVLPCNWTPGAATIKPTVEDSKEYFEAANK

B1: Srx1^Cys106S (S. cerevisiae Srx1 with Cys106 changed to serine) (protein)
chain: MSLQSNSVKPTEIPLSEIRRPLAPVLDPQKIDAMVATMKGIPTASKTCSLEQAEAAASAGELPPVDVLGVRVKGQTLYYAFGGCHRLQAYDRRARETQNAAFPVRSRVLPATPRQIRMYLGSSLDIE
reduction of the Cys-SO2H form of Tsa1: the other cysteine mutants have no effect for Srx1^Cys106S

B2: Srx1^Cys48S (S. cerevisiae Srx1 with Cys48 changed to serine) (protein)
chain: MSLQSNSVKPTEIPLSEIRRPLAPVLDPQKIDAMVATMKGIPTASKTSSLEQAEAAASAGELPPVDVLGVRVKGQTLYYAFGGCHRLQAYDRRARETQNAAFPVRCRVLPATPRQIRMYLGSSLDIE
reduction of the Cys-SO2H form of Tsa1: a minor effect for Srx1^Cys48S
